Laboratory results from US20180319880A1 (Eli Lilly, published 2018).
Positions count from the first letter of the chain named.

What was measured:
[1] = target: T1, human CGRP (human/cynomolgus monkey CGRP) (human, not fully specified); assay: SPR (BIAcore 3000), antibody captured on Protein A, after CGRP injections, 25 C
T1 construct: also called human Calcitonin Gene Related Peptide; human CGRP peptide (Bachem H-1470)
T1 peptide: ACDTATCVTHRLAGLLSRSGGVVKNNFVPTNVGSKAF

mouse/rat CGRP = target: T2, mouse/rat CGRP (mouse/rat, UniProt P01256 83-119 (rat entry)); assay: SPR (Biacore T100 or T200), antibody captured on Protein A, CGRP as analyte, 37 C, n=1
T2 construct: also used as the target of the rat dermal blood flow assay (endogenous rat CGRP)
T2 peptide (looked up): T1 peptide with A1S, D3N, N25D, K35E
Procedure: (§1) Affinity and kinetics of Bispecific Antibody 1 to human/cynomolgus monkey, mouse/rat, and rabbit CGRP are measured using a Biacore T100 or T200 instrument (BIAcore® AB, Upsala, Sweden). Briefly, a protein-A coupled CM5 chip is generated using standard amine-coupling protocols. […] A concentration series of each ligand is injected over all flow cells at 70-100 μL/minute for 180 seconds followed by a 1500-1800 second dissociation phase followed by chip regeneration.
(§2) Data is analyzed by flow-cell 1 reference subtraction along with 0 nM blank subtraction. The on-rate (kₒₙ) and off-rate (koff) for each ligand are fit globally using a “1:1 (Langmuir) Binding” binding model. The affinity (KD) is calculated from the binding kinetics according to the relationship KD=koff/kₒₙ. Stoichiometry of binding is calculated according to the relationship: Stoichiometry=[RUₘₐₓ/RU_{Bispecific Antibody 1}]/[MWantigen/MW_{Bispecific Antibody 1}] where MWantigen is the molecular weight of human CGRP and MW_{Bispecific Antibody 1} is 150 kDa.

rabbit CGRP = rabbit CGRP (rabbit); assay: as above
Procedure: as §1, §2

human IL-12 = target: T3, human IL-12 (human, UniProt P29459 23-219; P29460 23-328); assay: SPR (BIAcore 2000), antibody captured on Protein A
T3 sequence (looked up) 1: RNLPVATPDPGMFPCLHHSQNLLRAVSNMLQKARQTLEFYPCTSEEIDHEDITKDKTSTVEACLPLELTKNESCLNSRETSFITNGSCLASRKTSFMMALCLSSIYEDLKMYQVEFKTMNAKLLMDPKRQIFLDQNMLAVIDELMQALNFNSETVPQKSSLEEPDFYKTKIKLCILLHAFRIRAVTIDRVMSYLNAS
T3 sequence (looked up) 2: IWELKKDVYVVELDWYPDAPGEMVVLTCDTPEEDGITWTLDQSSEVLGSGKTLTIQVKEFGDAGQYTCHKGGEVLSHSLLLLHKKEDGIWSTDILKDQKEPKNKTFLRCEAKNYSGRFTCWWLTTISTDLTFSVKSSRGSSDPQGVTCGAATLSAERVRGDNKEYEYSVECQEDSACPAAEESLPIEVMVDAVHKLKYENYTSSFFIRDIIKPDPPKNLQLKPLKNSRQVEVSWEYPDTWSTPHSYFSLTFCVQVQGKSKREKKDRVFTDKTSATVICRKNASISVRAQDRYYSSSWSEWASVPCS

human IL-35 = target: T4, human IL-35 (human, UniProt P29459 23-219; Q14213 21-229); assay: SPR (BIAcore 2000), antibody captured on Protein A
T4 sequence (looked up) 1: T3 sequence (looked up) 1
T4 sequence (looked up) 2: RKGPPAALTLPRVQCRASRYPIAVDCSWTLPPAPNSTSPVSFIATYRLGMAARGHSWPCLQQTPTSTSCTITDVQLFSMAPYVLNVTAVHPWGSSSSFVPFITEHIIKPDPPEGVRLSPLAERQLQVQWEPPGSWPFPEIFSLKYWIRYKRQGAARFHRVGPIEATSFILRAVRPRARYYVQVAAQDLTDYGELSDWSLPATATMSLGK

human IL-27 = target: T5, human IL-27 (human, UniProt Q8NEV9 29-243; Q14213 21-229); assay: SPR (BIAcore 2000), antibody captured on Protein A
T5 sequence (looked up) 1: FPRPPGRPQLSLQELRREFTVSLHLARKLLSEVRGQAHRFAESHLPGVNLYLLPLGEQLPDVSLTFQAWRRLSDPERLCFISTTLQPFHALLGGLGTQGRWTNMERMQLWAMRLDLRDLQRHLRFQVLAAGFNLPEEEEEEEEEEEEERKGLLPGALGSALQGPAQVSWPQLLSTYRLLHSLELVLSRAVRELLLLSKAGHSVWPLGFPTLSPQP
T5 sequence (looked up) 2: T4 sequence (looked up) 2

rabbit IL-23 = target: T6, rabbit IL-23 (rabbit, UniProt G1SSM0 20-191); assay: SPR (Biacore T200), antibody captured on Protein A, IL-23 as analyte, 37 C, n=1
T6 construct: not shown: The rabbit p40 subunit (IL-12B) of the heterodimer; Any tag or linker of the reagent is also unstated
T6 sequence (p19): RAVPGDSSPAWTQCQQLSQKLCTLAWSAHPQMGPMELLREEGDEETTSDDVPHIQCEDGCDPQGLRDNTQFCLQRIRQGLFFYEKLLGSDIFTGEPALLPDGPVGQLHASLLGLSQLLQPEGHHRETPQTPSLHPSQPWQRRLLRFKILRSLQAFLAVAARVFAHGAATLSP
Procedure: Affinity and kinetics of Bispecific Antibody 1 to human, cynomolgus monkey, mouse, rat, and rabbit IL-23 are measured using a Biacore T200 instrument (BIAcore® AB, Upsala, Sweden). Briefly, a protein-A coupled CM5 chip is generated using standard amine-coupling protocols. Bispecific Antibody 1 is diluted to 1 μg/mL in running buffer, and approximately 100 RU is captured to the chip surface. A concentration series of each ligand is injected over all flow cells at 100 μL/minute for 180 seconds followed by a 900 second dissociation phase followed by chip regeneration. Data is analyzed in Biacore T200 Evaluation Software Version 1.0 by flow-cell 1 reference subtraction along with 0 nM blank subtraction. Human, cynomolgus monkey, and rabbit IL-23 data are fit globally using a “1:1 (Langmuir) Binding” binding model to determine the on-rate (kₒₙ) and off-rate (koff) for each ligand. The affinity (KD) is calculated from the binding kinetics according to the relationship KD=koff/kₒₙ. Mouse IL-23 binding data is fit using a “Steady State Affinity” binding model to determine affinity (KD). Stoichiometry of binding is calculated according to the relationship: Stoichiometry of binding is calculated according to the relationship: Stoichiometry=[RUₘₐₓ/RU_{Bispecific Antibody 1}]/[MWantigen/MW_{Bispecific Antibody 1}] where MWantigen is the molecular weight of human IL-23 and MW_{Bispecific Antibody 1} is 150 kDa.

[2] = target: T1, human CGRP (human/cynomolgus monkey …); assay: SPR (Biacore T100 or T200), antibody captured on Protein A, CGRP as analyte, 37 C, n=3
Procedure: as §1, §2

mouse IL-23 = target: T7, mouse IL-23 (mouse, UniProt Q9EQ14 22-196; P43432 23-335); assay: SPR (Biacore T200), antibody captured on Protein A, steady-state affinity model, 37 C, n=2
T7 sequence (looked up) 1: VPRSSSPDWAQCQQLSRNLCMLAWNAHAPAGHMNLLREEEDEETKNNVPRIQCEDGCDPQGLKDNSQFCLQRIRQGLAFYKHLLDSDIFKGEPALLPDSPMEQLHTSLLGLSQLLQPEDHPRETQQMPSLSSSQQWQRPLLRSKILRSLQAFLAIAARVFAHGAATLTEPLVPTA
T7 sequence (looked up) 2: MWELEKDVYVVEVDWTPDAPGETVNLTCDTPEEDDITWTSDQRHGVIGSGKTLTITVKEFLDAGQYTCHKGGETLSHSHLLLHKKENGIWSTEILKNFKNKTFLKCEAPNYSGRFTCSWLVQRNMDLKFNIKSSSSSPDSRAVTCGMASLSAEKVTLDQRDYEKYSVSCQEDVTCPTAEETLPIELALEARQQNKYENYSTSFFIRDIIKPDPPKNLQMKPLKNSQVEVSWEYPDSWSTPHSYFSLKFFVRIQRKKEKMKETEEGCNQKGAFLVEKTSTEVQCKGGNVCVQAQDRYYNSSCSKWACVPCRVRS
Procedure: Affinity and kinetics of Bispecific Antibody 1 to human, cynomolgus monkey, mouse, rat, and rabbit IL-23 are measured using a Biacore T200 instrument (BIAcore® AB, Upsala, Sweden). Briefly, a protein-A coupled CM5 chip is generated using standard amine-coupling protocols. Bispecific Antibody 1 is diluted to 1 μg/mL in running buffer, and approximately 100 RU is captured to the chip surface. A concentration series of each ligand is injected over all flow cells at 100 μL/minute for 180 seconds followed by a 900 second dissociation phase followed by chip regeneration. Data is analyzed in Biacore T200 Evaluation Software Version 1.0 by flow-cell 1 reference subtraction along with 0 nM blank subtraction. Human, cynomolgus monkey, and rabbit IL-23 data are fit globally using a “1:1 (Langmuir) Binding” binding model to determine the on-rate (kₒₙ) and off-rate (koff) for each ligand. The affinity (KD) is calculated from the binding kinetics according to the relationship KD=koff/kₒₙ. […] Stoichiometry of binding is calculated according to the relationship: Stoichiometry of binding is calculated according to the relationship: Stoichiometry=[RUₘₐₓ/RU_{Bispecific Antibody 1}]/[MWantigen/MW_{Bispecific Antibody 1}] where MWantigen is the molecular weight of human IL-23 and MW_{Bispecific Antibody 1} is 150 kDa. […]

- stoichiometry of human CGRP-to-Bispecific Antibody 1 [1]: 0.8
- Kd (mouse/rat CGRP): 0.169 nM
- Stoichiometry (mouse/rat CGRP): 0.8
- koff (mouse/rat CGRP): 0.00097 s⁻¹
- kon (mouse/rat CGRP): 5.7e+06 M⁻¹ s⁻¹
- Kd (rabbit CGRP): 0.021 nM
- Stoichiometry (rabbit CGRP): 0.9
- koff (rabbit CGRP): 0.00047 s⁻¹
- kon (rabbit CGRP): 2.3e+07 M⁻¹ s⁻¹
- binding result (human IL-12): no binding (tested: 400 nM)
- binding result (human IL-35): no binding (tested: 400 nM)
- binding result (human IL-27): no binding (tested: 400 nM)
- Kd (rabbit IL-23): 1020 nM
- Stoichiometry (rabbit IL-23): 1
- koff (rabbit IL-23): 0.018 s⁻¹
- kon (rabbit IL-23): 17000 M⁻¹ s⁻¹
- Kd [2]: 0.0071 nM
- Stoichiometry [2]: 1
- koff [2]: 7.2e-05 s⁻¹
- kon [2]: 1.5e+07 M⁻¹ s⁻¹
- Kd (mouse IL-23): > 100 nM
B1: Bispecific Antibody 1 (bispecific antibody, human IgG1, kappa, lambda, L234A L235A)
heavy 1: QVQLVQSGAEVKKPGSSVKVSCKASGYTFGNYWMQWVRYAPGQGLEWMGAIYEGTGKTVYIQKFADRVTITADKSTSTAYMELSSLRSEDTAVYYCARLSDYVSGFGYWGRGTTVTVSSASTKGPSVFPLAPCSKSTSGGTAALGCLVKDYFPEPVTVSWNSGALTSGVHTFPAVLQSSGLYSLSSVVTVPSSSLGTQTYICNVNHKPSNTKVDKKVEPDSGDKTHTCPPCPAPEAAGGPSVFLFPPKPKDTLMISRTPEVTCVVVDVSHEDPEVKFNWYVDGVEVHNAKTKPREEQYNSTYRVVSVLTVLHQDWLNGKEYKCKVSNKALPAPIEKTISKAKGQPREPQVYTLPPSRGDMTKNQVQLTCLVKGFYPSDIAVEWESNGQPENNYKTTPPVLDSDGSFFLASKLTVDKSRWQQGNVFSCSVMHEALHNHYTQKSLSLSPG
light 1: DIQMTQSPSSLSASVGDRVTITCRASKDISKYLNWYQRKPGDAPKLLIYYTSGYHSGVPSRFSGSGSGTDFTLTISSLQPEDFATYYCQQGDALPPTFGGGTKVEIKRTVAAPSVFIFPPSKEQLKSGTASVVCLLNNFYPREAKVQWKVDNALQSGNSQESVTEQDSKDSTYSLSSTLTLSKADYEKHKVYACEVTHQGLSSPVTKSFNRGEC
heavy 2: QVQLVQSGAEVKKPGSSVKVSCKASGYPFTRYVMHWVRKAPGQGLEWMGYINPYNDGVNYNEEFKGRVTITADESTSTAYMELSSLRSEDTAVYYCARNWDTGLWGQGTTVTVSSASTKGPSVFPLAPSSKSTSGGTAALGCLVKDYFPEPVTVSWNSGALTSGVATGPAVLQSSGLYSLSSVVTVPSSSLGTQTYICNVNHKPSNTKVDKKVEPKSCDKTHTCPPCPAPEAAGGPSVFLFPPKPKDTLMISRTPEVTCVVVDVSHEDPEVKFNWYVDGVEVHNAKTKPREEQYNSTYRVVSVLTVLHQDWLNGKEYKCKVSNKALPAPIEKTISKAKGQPREPQVSTLPPSREEMTKNQVSLMCLVYGFYPSDIAVEWESNGQPENNYKTTPPVLDSDGSFFLYSVLTVDKSRWQQGNVFSCSVMHEALHNHYTQKSLSLSPG
light 2: RIQMTQSPSSLSASVGDRVTITCKASDHIGKFLTWYQDKPGKAPKLLIYGATSKLTGVPSRFSGSGSGTDFTLTISSLQPEDFATYYCQQYWSTPFTFGGGTKVEIKGQPKAAPSVTLFPPSSEELQANKATLVCYISDFYPGAVTVAWKADSSPVKAGVETTTPSKQSNNKYAAWSYLSLTPEQWKSHRSYSCQVTHEGSTVEKTVAPTEC
notes: Heterodimeric IgG1 with one arm for CGRP and one arm for the p19 subunit of IL-23; also called exemplified bispecific antibody; anti-CGRP/anti-IL-23 IgG bispecific antibody
